# ± gives the standard deviation.
# Test: protein stability index of a GFP-peptide fusion (GPS, HEK-293T) (PSI 1-6); higher = more stable
# [1] = treatment: DMSO, c terminus: a fixed tail appended
# [2] = treatment: MLN4924 1 uM, 8 h, c terminus: a fixed tail appended
# [3] = treatment: DMSO, c terminus: native
# [4] = treatment: MLN4924 1 uM, 8 h, c terminus: native
# 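Also: 24-mer peptide tiles fused after GFP, lentivirally expressed, FACS-sorted into six equal bins by GFP/DsRed ratio, decoded by Illumina sequencing, PSI is the read-weighted mean bin number.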
Sequence,protein stability index [1],protein stability index [2],protein stability index [3],protein stability index [4]
LYLQLAICSSLQNLEKTIFCLQKL [C8orf76],3.12 ± 0.69,3.2 ± 0.099,–,–
KAIKARGEVIHCKLRAMKELSEAA [STX11],3.32 ± 0.29,3.6 ± 0.2,–,–
IMDRFDCQYLMATFVNVYIASFIR [CDS2],3.423 ± 0.005,3.33 ± 0.31,–,–
IAVAWIYGTKKFMQELTEMLGFRP [SLC6A17],2.62 ± 0.78,2.1 ± 0.61,–,–
NAMTCEGCKGFFRRSMKRKALFTC [VDR],2.38 ± 0.36,2.22 ± 0.6,–,–
YESGYAFLPDLLIFQMVIICLMCV [SMG5],3.23 ± 0.32,3.16 ± 0.57,–,–
ARLMLESEYRSDIINAKSNDGWTP [ASB7],2.65 ± 0.28,3.15 ± 0.15,–,–
DLDSCSRDGALLGCSLTADGLPLH [MYORG],3.32 ± 0.28,3.51 ± 0.3,–,–
LMISENNFLFRNAASTLTERPCYN [ANKRD40],2.16 ± 0.31,2.36 ± 0.27,–,–
KVQFNLQFTKPNASLGDVQSGATI [SASS6],2.45 ± 0.37,2.66 ± 0.45,–,–
KLEEVVNKKHGEAEKKKPKTQIVC [ZC3H15],4.64 ± 0.18,4.63 ± 0.24,–,–
LAMGTVSLGQLPLPPIPHVFSAGT [PLAGL1],2.24 ± 0.26,2.4 ± 0.34,–,–
REARKRALARKQAQEQLRPQTPEP [RSPH3],5.04 ± 0.28,5.12 ± 0.15,–,–
TKHKCRQLTKASLKPRGCSKPPWR [SPACA9],2.85 ± 0.4,3.42 ± 0.47,–,–
EAAGSFTSSLAQPGAYYPYERTLG [IRX6],3.24 ± 0.14,3.28 ± 0.42,–,–
PISAIRHEGKTDSERTDTAADGET [EPB41L3],5.71 ± 0.19,5.74 ± 0.078,–,–
CHPVERGIKSKEAEEYRLKEHYLT [PSD2],4.21 ± 0.093,4.1 ± 0.2,–,–
HLRATEKMKTRELHRESSNFDSIY [HDAC6],3.18 ± 0.43,3.46 ± 0.2,–,–
FLYVTGHIKEILITAGGENVPPIP [ACSBG2],2.78 ± 0.93,2.81 ± 1.1,–,–
RLEINVLKKIKEKDKENKFLCVLM [CLK3],2.57 ± 0.52,2.1 ± 0.082,–,–
ERIDCQGIPPSSKDKLGVWVYKNK [KLHDC2],3.75 ± 0.23,3.64 ± 0.34,–,–
VNHRIYYKGHIPEKLETFVSLHR [FEM1C],–,–,2.24 ± 0.17,2.305 ± 0.015
DEEDCPNPEEYNLDEPNAESDYTY [SRPK2],5.57 ± 0.37,5.66 ± 0.15,–,–

Sequence,protein stability index [1],protein stability index [2],protein stability index [3],protein stability index [4]
TAQSTFNDLQDLREQILRVKDTDD [RAP1B],5.01 ± 0.31,4.97 ± 0.27,–,–
RSSSCGDTELLGQATLPVGSPSRP [C2CD2L],5.04 ± 0.15,5.04 ± 0.13,–,–
KVHIGYLPNKQVLGLSKLARIVEI [GCH1],2.84 ± 1.1,2.48 ± 0.8,–,–
SNVSSSGSINLLESPQLATLAEDV [MAP2],5.03 ± 0.22,5.17 ± 0.24,–,–
ESACSSDSLDEARSSGSEGTPADT [PWWP2B],5.7 ± 0.11,5.5 ± 0.21,–,–
GRSSMGTGLSGGKRPSQEEDTQSI [CRY1],5.51 ± 0.17,5.37 ± 0.29,–,–
LASQALTPPPGPASAQPLPAPEAA [TFE3],5.26 ± 0.25,5.24 ± 0.11,–,–
AEVSVISEADPQALLQAMKDLDGM [FBF1],4.52 ± 0.19,4.36 ± 0.2,–,–
VPWSQCLQNFLLHGTKNVTNSSSL [WSB1],2.19 ± 0.21,2.19 ± 0.24,–,–
GRAGAVGTPGERGPPGPPGPPGPP [EMID1],4.6 ± 0.44,4.68 ± 0.22,–,–
PGHIGPPGPTGPKGISGHPGEKGE [EMID1],5.59 ± 0.17,5.07 ± 0.35,–,–
PVSASRSSLDLSYYPTSSSTSFMS [EMD],3.38 ± 0.21,3.38 ± 0.13,–,–
GLDFHRFYFENLWSRNSKPVHTTI [CAMK2A],2.28 ± 0.58,2.11 ± 0.32,–,–
DKTCSKTKNKSKHALRKKQLKRQK [FAM9B],4.49 ± 0.21,4.59 ± 0.23,–,–
HQPKGLEEENAQLRGALQQGEAFQ [PBXIP1],5.07 ± 0.24,5.05 ± 0.12,–,–
LPNFAFSVPLAYFLLSQQTDLPEC [TCF25],2.72 ± 1.8,2.94 ± 0.38,–,–
NTTCVGRYPVCKFPSLQVTAILIE [FEM1C],2.67 ± 0.48,2.23 ± 0.21,–,–
AFADIIHSLKESGQLWLDAYLHQ [FADS1],–,–,2.7 ± 0.78,2.49 ± 0.58
HPFYHCLVAEVPKEHWTPEGHSIV [SAT1],2.76 ± 0.33,2.54 ± 0.25,–,–
TRQKKNLPDSPLRFDGLPAVLGFP [TRIM15],2.85 ± 0.3,2.92 ± 0.3,–,–
FFAFLHCWLNAFAEMLRFGDRMFY [SOAT2],3.14 ± 0.56,3.44 ± 0.23,–,–
SEATLPAQMSTLHVSPPPSADPAR [PDLIM4],5.26 ± 0.17,5.17 ± 0.18,–,–

# Source: the supplement of paper PMC10567573
